Bridge positions count the residues as written; N and C are the ends. Square brackets hold non-standard residues; d marks the D form. Ends that are not written are not given here. Pro(cis-4-CF3) = O=C(O)[C@@H]1C[C@H](C(F)(F)F)CN1; Oic = O=C(O)[C@@H]1C[C@@H]2CCCC[C@@H]2N1; NMeI = CC[C@H](C)[C@H](NC)C(=O)O; tBuAla = CC(C)(C)C[C@H](N)C(=O)O; PEG4 = NCCOCCOCCOCCOCCC(=O)O; Pen = CC(C)(S)[C@H](N)C(=O)O; NMeC = CN[C@@H](CS)C(=O)O; NMeA = CN[C@@H](C)C(=O)O; Orn = NCCC[C@H](N)C(=O)O; Aib = CC(C)(N)C(=O)O; Sar = CNCC(=O)O
T1: recombinant human MASP1 active protease (amino acids 297-699, C-terminal His Tag) (human, UniProt P48740 297-699)
T1 sequence: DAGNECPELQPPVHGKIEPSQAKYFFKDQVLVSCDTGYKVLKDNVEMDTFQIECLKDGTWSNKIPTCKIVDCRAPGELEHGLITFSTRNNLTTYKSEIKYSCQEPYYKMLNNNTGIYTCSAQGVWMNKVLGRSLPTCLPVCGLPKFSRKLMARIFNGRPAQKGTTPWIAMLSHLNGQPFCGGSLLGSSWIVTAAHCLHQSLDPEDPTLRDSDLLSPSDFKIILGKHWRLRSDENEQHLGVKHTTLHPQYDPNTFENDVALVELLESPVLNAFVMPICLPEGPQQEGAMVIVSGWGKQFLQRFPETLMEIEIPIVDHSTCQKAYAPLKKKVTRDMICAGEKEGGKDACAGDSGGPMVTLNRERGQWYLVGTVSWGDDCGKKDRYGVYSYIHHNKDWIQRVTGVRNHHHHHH


What was measured:
[1] = target: T1, recombinant human MASP1 active protease …; assay: cell-based or functional assay
[2] = target: recombinant human MASP2 active protease (amino acids 297-686, C-terminal His Tag) (human, UniProt O00187 297-686); assay: cell-based or functional assay
Sequence of recombinant human MASP2 active protease (amino acids 297-686, C-terminal His Tag) (O00187 other isoform, or with tags, fused parts or gaps limits assumed): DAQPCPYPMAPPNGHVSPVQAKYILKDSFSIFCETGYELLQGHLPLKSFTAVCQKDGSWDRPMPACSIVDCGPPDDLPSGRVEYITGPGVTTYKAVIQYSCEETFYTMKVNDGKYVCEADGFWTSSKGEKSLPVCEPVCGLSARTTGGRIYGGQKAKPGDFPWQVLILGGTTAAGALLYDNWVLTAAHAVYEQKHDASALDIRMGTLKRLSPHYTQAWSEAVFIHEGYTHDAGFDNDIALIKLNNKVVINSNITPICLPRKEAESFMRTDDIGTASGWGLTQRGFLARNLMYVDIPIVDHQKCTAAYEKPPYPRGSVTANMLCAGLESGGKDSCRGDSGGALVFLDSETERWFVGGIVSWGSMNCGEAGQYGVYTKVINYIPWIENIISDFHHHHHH

human MASP1 IC50 [1] | human MASP2 IC50 [2] | Binder
1.19 nM | 36 nM | [Aib]ICSRS[tBuAla]PPI[Pen]IPD-NH2 (disulfide 3-11; N-terminus assumed; SMILES CC[C@H](C)[C@@H]1NC(=O)[C@@H]2CCCN2C(=O)[C@@H]2CCCN2C(=O)[C@H](CC(C)(C)C)NC(=O)[C@H](CO)NC(=O)[C@H](CCCNC(=N)N)NC(=O)[C@H](CO)NC(=O)[C@@H](NC(=O)[C@@H](NC(=O)C(C)(C)N)[C@@H](C)CC)CSSC(C)(C)[C@@H](C(=O)N[C@H](C(=O)N2CCC[C@H]2C(=O)N[C@@H](CC(=O)O)C(N)=O)[C@@H](C)CC)NC1=O) [(Aib)-IC+SRS-((tBu)A)-PPI-(Pen)+IPD-NH2]
3.2 nM | 24 nM | [NMeA]ICSRS[tBuAla]PPI[Pen]IP-NH2 (disulfide 3-11; N-terminus assumed; SMILES CC[C@H](C)[C@H](NC(=O)[C@H](C)NC)C(=O)N[C@H]1CSSC(C)(C)[C@@H](C(=O)N[C@H](C(=O)N2CCC[C@H]2C(N)=O)[C@@H](C)CC)NC(=O)[C@H]([C@@H](C)CC)NC(=O)[C@@H]2CCCN2C(=O)[C@@H]2CCCN2C(=O)[C@H](CC(C)(C)C)NC(=O)[C@H](CO)NC(=O)[C@H](CCCNC(=N)N)NC(=O)[C@H](CO)NC1=O) [((N-Me)A)-IC+SRS-((tBu)A)-PPI-(Pen)+IP-NH2]
3 nM | 140 nM | AICSRSLP[Oic]I[Pen]IPQ-OH (disulfide 3-11; N-terminus assumed; SMILES CC[C@H](C)[C@H](NC(=O)[C@H](C)N)C(=O)N[C@H]1CSSC(C)(C)[C@@H](C(=O)N[C@H](C(=O)N2CCC[C@H]2C(=O)N[C@@H](CCC(N)=O)C(=O)O)[C@@H](C)CC)NC(=O)[C@H]([C@@H](C)CC)NC(=O)[C@@H]2C[C@@H]3CCCC[C@@H]3N2C(=O)[C@@H]2CCCN2C(=O)[C@H](CC(C)C)NC(=O)[C@H](CO)NC(=O)[C@H](CCCNC(=N)N)NC(=O)[C@H](CO)NC1=O) [AIC+SRSLP-(Oic)-I-(Pen)+IPQ-OH]
3.1 nM | 590 nM | A[NMeI]CSRS[tBuAla]P[Oic]I[NMeC]IPD-NH2 (disulfide 3-11; N-terminus assumed; SMILES CC[C@H](C)[C@@H]1NC(=O)[C@@H]2C[C@@H]3CCCC[C@@H]3N2C(=O)[C@@H]2CCCN2C(=O)[C@H](CC(C)(C)C)NC(=O)[C@H](CO)NC(=O)[C@H](CCCNC(=N)N)NC(=O)[C@H](CO)NC(=O)[C@@H](NC(=O)[C@H]([C@@H](C)CC)N(C)C(=O)[C@H](C)N)CSSC[C@@H](C(=O)N[C@H](C(=O)N2CCC[C@H]2C(=O)N[C@@H](CC(=O)O)C(N)=O)[C@@H](C)CC)N(C)C1=O) [A-((N-Me)I)-C+SRS-((tBu)A)-P-(Oic)-I-((N-Me)C)+IPD-NH2]
3.2 nM | 93 nM | [Orn]ICSRS[tBuAla]PPI[Pen]IP-NH2 (disulfide 3-11; N-terminus assumed; SMILES CC[C@H](C)[C@H](NC(=O)[C@@H](N)CCCN)C(=O)N[C@H]1CSSC(C)(C)[C@@H](C(=O)N[C@H](C(=O)N2CCC[C@H]2C(N)=O)[C@@H](C)CC)NC(=O)[C@H]([C@@H](C)CC)NC(=O)[C@@H]2CCCN2C(=O)[C@@H]2CCCN2C(=O)[C@H](CC(C)(C)C)NC(=O)[C@H](CO)NC(=O)[C@H](CCCNC(=N)N)NC(=O)[C@H](CO)NC1=O) [(Orn)-IC+SRS-((tBu)A)-PPI-(Pen)+IP-NH2]
3.2 nM | 1600 nM | AICSRS[tBuAla]P[Pro(cis-4-CF3)]I[NMeC]IPD-NH2 (disulfide 3-11; N-terminus assumed; SMILES CC[C@H](C)[C@H](NC(=O)[C@H](C)N)C(=O)N[C@H]1CSSC[C@@H](C(=O)N[C@H](C(=O)N2CCC[C@H]2C(=O)N[C@@H](CC(=O)O)C(N)=O)[C@@H](C)CC)N(C)C(=O)[C@H]([C@@H](C)CC)NC(=O)[C@@H]2C[C@H](C(F)(F)F)CN2C(=O)[C@@H]2CCCN2C(=O)[C@H](CC(C)(C)C)NC(=O)[C@H](CO)NC(=O)[C@H](CCCNC(=N)N)NC(=O)[C@H](CO)NC1=O) [AIC+SRS-((tBu)A)-P-((4-CF3)P)-I-((N-Me)C)+IPD-NH2]
3.1 nM | 160 nM | AICSRSLP[Oic]I[Pen]IPE-NH2 (disulfide 3-11; N-terminus assumed; SMILES CC[C@H](C)[C@H](NC(=O)[C@H](C)N)C(=O)N[C@H]1CSSC(C)(C)[C@@H](C(=O)N[C@H](C(=O)N2CCC[C@H]2C(=O)N[C@@H](CCC(=O)O)C(N)=O)[C@@H](C)CC)NC(=O)[C@H]([C@@H](C)CC)NC(=O)[C@@H]2C[C@@H]3CCCC[C@@H]3N2C(=O)[C@@H]2CCCN2C(=O)[C@H](CC(C)C)NC(=O)[C@H](CO)NC(=O)[C@H](CCCNC(=N)N)NC(=O)[C@H](CO)NC1=O) [AIC+SRSLP-(Oic)-I-(Pen)+IPE-NH2]
3.2 nM | 79 nM | [Sar]ICSRSLP[Oic]I[Pen]IP[PEG4]-NH2 (disulfide 3-11; N-terminus assumed; SMILES CC[C@H](C)[C@H](NC(=O)CNC)C(=O)N[C@H]1CSSC(C)(C)[C@@H](C(=O)N[C@H](C(=O)N2CCC[C@H]2C(=O)NCCOCCOCCOCCOCCC(N)=O)[C@@H](C)CC)NC(=O)[C@H]([C@@H](C)CC)NC(=O)[C@@H]2C[C@@H]3CCCC[C@@H]3N2C(=O)[C@@H]2CCCN2C(=O)[C@H](CC(C)C)NC(=O)[C@H](CO)NC(=O)[C@H](CCCNC(=N)N)NC(=O)[C@H](CO)NC1=O) [((N-Me)G)-IC+SRSLP-(Oic)-I-(Pen)+IP-(PEG3(16 atoms))-NH2]
3.3 nM | 140 nM | AICSRSLP[Oic]I[Pen]IPQ-NH2 (disulfide 3-11; N-terminus assumed; SMILES CC[C@H](C)[C@H](NC(=O)[C@H](C)N)C(=O)N[C@H]1CSSC(C)(C)[C@@H](C(=O)N[C@H](C(=O)N2CCC[C@H]2C(=O)N[C@@H](CCC(N)=O)C(N)=O)[C@@H](C)CC)NC(=O)[C@H]([C@@H](C)CC)NC(=O)[C@@H]2C[C@@H]3CCCC[C@@H]3N2C(=O)[C@@H]2CCCN2C(=O)[C@H](CC(C)C)NC(=O)[C@H](CO)NC(=O)[C@H](CCCNC(=N)N)NC(=O)[C@H](CO)NC1=O) [AIC+SRSLP-(Oic)-I-(Pen)+IPQ-NH2]
3.1 nM | 83 nM | AICSRS[tBuAla]PPICID-OH (disulfide 3-11; N-terminus assumed; SMILES CC[C@H](C)[C@H](NC(=O)[C@H](C)N)C(=O)N[C@H]1CSSC[C@@H](C(=O)N[C@H](C(=O)N[C@@H](CC(=O)O)C(=O)O)[C@@H](C)CC)NC(=O)[C@H]([C@@H](C)CC)NC(=O)[C@@H]2CCCN2C(=O)[C@@H]2CCCN2C(=O)[C@H](CC(C)(C)C)NC(=O)[C@H](CO)NC(=O)[C@H](CCCNC(=N)N)NC(=O)[C@H](CO)NC1=O) [AIC+SRS-((t-Bu)A)-PPIC+ID-OH]
3.3 nM | 71 nM | [2‑(Piperidin)acetyl]ICSRS[tBuAla]PPI[Pen]IPD-NH2 (disulfide 3-11) [(2-(Piperidin)acetyl)-IC+SRS-((tBu)A)-PPI-(Pen)+IPD-NH2]
1.2 nM | 620 nM | A[NMeI]CSRS[tBuAla]PPI[NMeC]IPD-NH2 (disulfide 3-11; N-terminus assumed; SMILES CC[C@H](C)[C@@H]1NC(=O)[C@@H]2CCCN2C(=O)[C@@H]2CCCN2C(=O)[C@H](CC(C)(C)C)NC(=O)[C@H](CO)NC(=O)[C@H](CCCNC(=N)N)NC(=O)[C@H](CO)NC(=O)[C@@H](NC(=O)[C@H]([C@@H](C)CC)N(C)C(=O)[C@H](C)N)CSSC[C@@H](C(=O)N[C@H](C(=O)N2CCC[C@H]2C(=O)N[C@@H](CC(=O)O)C(N)=O)[C@@H](C)CC)N(C)C1=O) [A-((N-Me)I)-C+SRS-((tBu)A)-PPI-((N-Me)C)+IPD-NH2]
3.2 nM | 75 nM | HICSRS[tBuAla]PPI[Pen]IPD-NH2 (disulfide 3-11; N-terminus assumed; SMILES CC[C@H](C)[C@H](NC(=O)[C@@H](N)Cc1c[nH]cn1)C(=O)N[C@H]1CSSC(C)(C)[C@@H](C(=O)N[C@H](C(=O)N2CCC[C@H]2C(=O)N[C@@H](CC(=O)O)C(N)=O)[C@@H](C)CC)NC(=O)[C@H]([C@@H](C)CC)NC(=O)[C@@H]2CCCN2C(=O)[C@@H]2CCCN2C(=O)[C@H](CC(C)(C)C)NC(=O)[C@H](CO)NC(=O)[C@H](CCCNC(=N)N)NC(=O)[C@H](CO)NC1=O) [HIC+SRS-((tBu)A)-PPI-(Pen)+IPD-NH2]
3.3 nM | 200 nM | [NMeA]ICSRSLP[Oic]I[Pen]IPE-NH2 (disulfide 3-11; N-terminus assumed; SMILES CC[C@H](C)[C@H](NC(=O)[C@H](C)NC)C(=O)N[C@H]1CSSC(C)(C)[C@@H](C(=O)N[C@H](C(=O)N2CCC[C@H]2C(=O)N[C@@H](CCC(=O)O)C(N)=O)[C@@H](C)CC)NC(=O)[C@H]([C@@H](C)CC)NC(=O)[C@@H]2C[C@@H]3CCCC[C@@H]3N2C(=O)[C@@H]2CCCN2C(=O)[C@H](CC(C)C)NC(=O)[C@H](CO)NC(=O)[C@H](CCCNC(=N)N)NC(=O)[C@H](CO)NC1=O) [((N-Me)A)-IC+SRSLP-(Oic)-I-(Pen)+IPE-NH2]

Reference: US20210246166A1 (Bayer, published 2021)
